Here are results for 5 molecules from article doi:10.1101/2021.03.30.437644.

In series [1] the target is T1, GBF1 (bZIP41) (Arabidopsis thaliana (Col-0), UniProt P42774 1-315).
T1 sequence: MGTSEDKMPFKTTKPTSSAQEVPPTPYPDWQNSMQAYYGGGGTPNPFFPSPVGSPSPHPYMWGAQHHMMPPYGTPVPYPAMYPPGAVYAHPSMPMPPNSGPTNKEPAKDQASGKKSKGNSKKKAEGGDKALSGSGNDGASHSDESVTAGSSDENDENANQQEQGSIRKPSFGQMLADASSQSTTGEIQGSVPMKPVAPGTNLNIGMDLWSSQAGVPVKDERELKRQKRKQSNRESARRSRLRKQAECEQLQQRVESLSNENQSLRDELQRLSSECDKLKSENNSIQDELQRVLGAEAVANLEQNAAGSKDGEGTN
As to the kind of experiment: EMSA. (In EMSA bound probe runs differently from free probe, usually more slowly.)

Series [2] deals with T2, bZIP44 (Arabidopsis thaliana (Col-0), UniProt C0Z2L5 1-173). As to the kind of experiment: EMSA.
Series [3] concerns the target T3, bZIP16 (Arabidopsis thaliana (Col-0), UniProt Q501B2 1-409).
T3 sequence: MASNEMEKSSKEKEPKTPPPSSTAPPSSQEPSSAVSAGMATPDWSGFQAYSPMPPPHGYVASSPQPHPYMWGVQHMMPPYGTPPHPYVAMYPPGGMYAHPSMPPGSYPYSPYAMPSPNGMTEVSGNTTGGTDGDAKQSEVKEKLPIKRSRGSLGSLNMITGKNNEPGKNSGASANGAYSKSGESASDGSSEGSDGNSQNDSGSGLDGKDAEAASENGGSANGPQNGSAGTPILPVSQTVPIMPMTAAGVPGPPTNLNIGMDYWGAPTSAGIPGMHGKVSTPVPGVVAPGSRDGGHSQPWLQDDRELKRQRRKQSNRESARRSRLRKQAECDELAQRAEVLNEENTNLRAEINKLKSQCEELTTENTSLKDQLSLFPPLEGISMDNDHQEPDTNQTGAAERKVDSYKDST
As to the kind of experiment: EMSA.

Series [4] has as its target T4, HYH (bZIP64) (Arabidopsis thaliana (Col-0), UniProt Q8W191 1-149).
T4 sequence: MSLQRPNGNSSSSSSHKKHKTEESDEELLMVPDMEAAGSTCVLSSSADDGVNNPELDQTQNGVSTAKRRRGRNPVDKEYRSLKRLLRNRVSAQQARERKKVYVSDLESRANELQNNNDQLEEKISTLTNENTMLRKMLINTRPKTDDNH
The experiment in a line: EMSA.

Series [5] deals with T5, SLIM1 (Arabidopsis thaliana (Col-0), UniProt O23116 1-567).
T5 sequence: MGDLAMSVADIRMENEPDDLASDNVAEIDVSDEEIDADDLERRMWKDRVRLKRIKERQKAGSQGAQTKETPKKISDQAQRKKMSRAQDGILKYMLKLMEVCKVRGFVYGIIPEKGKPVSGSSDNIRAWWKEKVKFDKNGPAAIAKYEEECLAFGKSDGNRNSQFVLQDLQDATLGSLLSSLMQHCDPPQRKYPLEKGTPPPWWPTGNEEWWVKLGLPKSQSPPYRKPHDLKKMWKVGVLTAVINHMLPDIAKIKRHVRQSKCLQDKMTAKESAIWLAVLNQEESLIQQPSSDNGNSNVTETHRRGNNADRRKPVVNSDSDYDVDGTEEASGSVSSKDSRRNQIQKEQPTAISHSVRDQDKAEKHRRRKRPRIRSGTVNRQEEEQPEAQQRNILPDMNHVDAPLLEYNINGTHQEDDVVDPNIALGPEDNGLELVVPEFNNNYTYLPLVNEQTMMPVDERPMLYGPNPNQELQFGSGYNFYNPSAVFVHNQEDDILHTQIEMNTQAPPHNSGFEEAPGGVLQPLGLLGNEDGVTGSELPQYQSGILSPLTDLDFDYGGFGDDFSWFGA
The experiment in a line: EMSA.

The target in series [6] is T2, bZIP44. As to the kind of experiment: competition EMSA.
Series [7] deals with T3, bZIP16. As to the kind of experiment: competition EMSA.
In series [8] the target is T4, HYH (bZIP64). The experiment in a line: competition EMSA.

T2 sequence (C0Z2L5 whole entry): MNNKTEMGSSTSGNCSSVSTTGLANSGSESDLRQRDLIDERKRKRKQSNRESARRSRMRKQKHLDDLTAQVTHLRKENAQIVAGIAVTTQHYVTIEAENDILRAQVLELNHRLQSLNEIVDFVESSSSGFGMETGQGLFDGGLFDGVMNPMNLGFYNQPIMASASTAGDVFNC

B1: Probe 3 (proxSDI2) (dsDNA)
DNA 1: GACCAGCCCGCGGTATTTTAGATCCAGTTGACGATAATGAACCAAGACGA
DNA 2: TCGTCTTGGTTCATTATCGTCAACTGGATCTAAAATACCGCGGGCTGGTC
On to B1, for which the binding result in series [1] is listed as “binds”.

B2: Probe 4 (proxSDI2) (dsDNA)
DNA 1: GACGGATAGGGTACGTGGCACTATTTTATA
DNA 2: TATAAAATAGTGCCACGTACCCTATCCGTC
Consider B2, for which the binding result in series [2], in series [3] and in series [4] was “binds” throughout.

B3: Probe 1 (proxSDI1) (dsDNA)
DNA 1: GTGGTAAGAAGTCTCCAAGTGACGTGGCAGCTTCTATGAACAGAGACGAA
DNA 2: TTCGTCTCTGTTCATAGAAGCTGCCACGTCACTTGGAGACTTCTTACCAC
On to B3, for which the binding result in series [5] is recorded as “binds”.

B4: Probe 2 (proxSDI2) (dsDNA)
DNA 1: GAGAGATAAAGAAGGTTTCTTCATTTAGAAACAGAGACACGAAGTTTGCG
DNA 2: CGCAAACTTCGTGTCTCTGTTTCTAAATGAAGAAACCTTCTTTATCTCTC
Take B4: the binding result in series [5] is “binds”.

B5: Mutated probe 4 (dsDNA)
DNA 1: GACGGATAGGGTAAAAGGCACTATTTTATA
DNA 2: TATAAAATAGTGCCTTTTACCCTATCCGTC
As to B5, the binding result in series [6], in series [7] and in series [8] was “no binding” throughout.
